Source: patent US20180112003A1 (UNIVERSITY OF SOUTHERN CALIFORNIA, published 2018)

Assays:
[1] = biological target: T1, human luteinizing hormone receptor (LHR) (human, UniProt P22888 27-699); test: flow cytometry screen of LHR-Fc ELISA positive hybridomas on ES-2 ovarian carcinoma cells; ratio of antibody MFI to isotype MFI
T1 construct: Endogenous LHR on human ovarian carcinoma cell lines (ES-2, SKOV3); also called LHR on ES-2 human ovarian carcinoma cells; LHR on SKOV3 cells
Text: (§1) Antibodies against the […] extracellular hormone binding domain of LHR were generated by repeated immunization of 4 week-old-BALB/c and NIH Swiss mice with genetically engineered LHR-Fc. As shown below in FIG. 3, the leader sequence and first part of the human LHR G-protein was used to generate the LHR-Fc used in the immunization and screening methods to generate and identify high binding antibodies. […] A typical flow cytometry screen of hybridomas positive by initial ELISA screen using LHR-Fc coated plates is shown below in FIG. 4 using the ES-2 ovarian carcinoma cell line. […] These few candidate hybridomas were then subcloned by dilution in 96 well plates and expanded for freezing in vials. After further screening by flow cytometry, specific subclones were selected for large scale production using 2L vessels (GRrex, 100L, Wolfson). Filtered supernatants were then subjected to antibody purification using tandon protein A or G and ion exchange chromatography methods performed routinely in the laboratory. Once purified, five antibody subclones designated 8B7-3, 5F4-21, 5B1-1, 2H11-37, and 138-2 were sequenced to facilitate the engineering of single chain genes used for the construction of LHR CARs described below.

[2] = biological target: T1, human luteinizing hormone receptor (LHR); test: flow cytometry on ES-2 human ovarian carcinoma cells; ratio of antibody MFI to isotype MFI
Text: as §1

T1 sequence (P22888 27-699 limits assumed): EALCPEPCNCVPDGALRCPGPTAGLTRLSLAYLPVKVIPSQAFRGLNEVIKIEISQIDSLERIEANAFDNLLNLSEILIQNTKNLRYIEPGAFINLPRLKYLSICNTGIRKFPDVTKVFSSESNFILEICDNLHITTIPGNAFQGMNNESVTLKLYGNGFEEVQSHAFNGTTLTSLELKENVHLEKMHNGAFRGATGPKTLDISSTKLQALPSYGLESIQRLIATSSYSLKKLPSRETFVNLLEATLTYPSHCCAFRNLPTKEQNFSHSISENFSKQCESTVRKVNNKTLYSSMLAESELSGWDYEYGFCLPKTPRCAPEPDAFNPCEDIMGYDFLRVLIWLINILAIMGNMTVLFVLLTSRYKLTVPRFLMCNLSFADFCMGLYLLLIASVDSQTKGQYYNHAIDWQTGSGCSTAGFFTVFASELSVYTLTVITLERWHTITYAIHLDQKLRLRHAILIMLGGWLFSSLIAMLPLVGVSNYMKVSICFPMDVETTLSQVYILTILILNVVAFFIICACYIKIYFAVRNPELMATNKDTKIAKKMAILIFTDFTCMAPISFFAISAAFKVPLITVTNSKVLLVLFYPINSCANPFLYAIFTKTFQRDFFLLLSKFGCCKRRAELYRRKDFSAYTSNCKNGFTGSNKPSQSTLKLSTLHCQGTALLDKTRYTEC

binding result [1]	binding result [2]	Binder
binds		LHR Antibody #8B7-3 (antibody, V domains shown, Mouse monoclonal antibody from a hybridoma; also called hybridoma 8B7) VH: QVKLQQSGPELVKPGASVKISCKASGYSFTGYYMHWVKQSHGNILDWIGYIYPYNGVSSYNQKFKGKATLTVDKSSSTAYMELRSLTSEDSAVYYCARERGLYQLRAMDYWGQGTSVTVSS VL: DIVLTQTPATLSVTPGDSVSLSCRASQSISNNLHWYQQKSHESPRLLIKNASQSISGIPSKFSGSGSGTDFTLRINSVETEDFGMYFCQQSNSWPYTFGSGTKLEIK
	binds	LHR Antibody #5F4-21 (antibody, V domains shown, Mouse monoclonal antibody from a hybridoma subclone) VH: EVQLQESGPDLVKPSQSLSLTCTVTGYSITSGYGWHWIRQFPGNKLEWMGYIHYSGSTTYNPSLKSRISISRDTSKNQFFLQLNSVTTEDTATYYCARSLRYWGQGTTLTVSS VL: DIVMTQTPAIMSASPGQKVTITCSASSSVNYMHWYQQKLGSSPKLWIYDTSKLAPGVPARFSGSGSGTSYSLTISSMEAEDAASYFCHQWSSYPYTFGSGTKLEIK
